# Source: the supplement of paper PMC10598134
# ± gives the standard deviation.
# Assay: collision cross section of modified peptide (TIMS, N2, iRT-aligned); higher = larger / more extended gas-phase ion
# Experimental: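 1/K0 was aligned run-wise to spiked iRT peptides and converted to CCS in N2 (Mason-Schamp). Values are the mean of 1-3 technical replicates for the most abundant feature at each charge state.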
# [1] = charge state: 2, modification: Succinyl
# [2] = charge state: 3, modification: Succinyl
# [3] = charge state: 2, modification: Acetyl (K)
# [4] = charge state: 3, modification: Acetyl (K)
# [5] = charge state: 2, modification: Glutarylation
# [6] = charge state: 2, modification: Hydroxyproline
# [7] = charge state: 2, modification: Nitro (Y)
# [8] = charge state: 2, modification: Trimethyl (K)
# [9] = charge state: 2, modification: Malonyl
# [10] = charge state: 2, modification: hydroxyisobutyryl
# [11] = charge state: 3, modification: Methyl (R)
# [12] = charge state: 2, modification: Citrullination (R)
# [13] = charge state: 3, modification: Citrullination (R)
# [14] = charge state: 3, modification: Trimethyl (K)
# [15] = charge state: 2, modification: Butyryl
# [16] = charge state: 3, modification: Butyryl
# [17] = charge state: 2, modification: HexNAc (ST)
# [18] = charge state: 2, modification: Formyl
# [19] = charge state: 2, modification: Methyl (K)
# [20] = charge state: 3, modification: Methyl (K)
# [21] = charge state: 3, modification: hydroxyisobutyryl
# [22] = charge state: 2, modification: Propionyl
# [23] = charge state: 2, modification: GlyGly (K)
# [24] = charge state: 3, modification: GlyGly (K)
sequence,measurement,setting,value
SGNLTEDDKHNNAK [_SGNLTEDDK(Succinyl)HNNAK_],collision cross section,[1],424.64 ± 1.1 Å²
same,collision cross section,[2],478.73 ± 2.5 Å²
LLEEEDSKLK [_LLEEEDSK(Succinyl)LK_],collision cross section,[1],381.87 ± 0.24 Å²
same,collision cross section,[2],464.35 Å²
IISSIEQKEENK [_IISSIEQK(Succinyl)EENK_],collision cross section,[1],408.03 ± 0.55 Å²
same,collision cross section,[2],479.06 ± 2.5 Å²
ALASIDSKLNQAK [_ALASIDSK(Acetyl (K))LNQAK_],collision cross section,[3],399.37 ± 2 Å²
VDVEVPDVSLEGPEGKLK [_VDVEVPDVSLEGPEGK(Acetyl (K))LK_],collision cross section,[3],461.92 ± 2.1 Å²
same,collision cross section,[4],555.98 Å²
TVSKVDDFLANEAK [_TVSK(Gluratylation)VDDFLANEAK_],collision cross section,[5],427.28 ± 0.47 Å²
VDIDAPDVSIEGPDAKLK [_VDIDAPDVSIEGPDAK(Dimethyl (K))LK_],collision cross section,"charge state: 2, modification: Dimethyl (K)",457.63 ± 1.8 Å²
same,collision cross section,"charge state: 3, modification: Dimethyl (K)",550.49 ± 0.63 Å²
IHNAENIQPGEQKYEYK [_IHNAENIQPGEQK(Succinyl)YEYK_],collision cross section,[2],525.87 ± 2 Å²
TVQGPPGEPGR [_TVQGPPGEP(Hydroxyproline)GR_],collision cross section,[6],345.67 ± 0.89 Å²
DLYEPSHGAK [_DLY(Nitro (Y))EPSHGAK_],collision cross section,[7],364.04 ± 0.94 Å²
same,collision cross section,"charge state: 3, modification: Nitro (Y)",435.87 ± 1.2 Å²
LLEEEDSKLK [_LLEEEDSK(Gluratylation)LK_],collision cross section,[5],387.79 ± 0.61 Å²
PSVGSQSNQAGQGKR [_PSVGSQSNQAGQGK(Acetyl (K))R_],collision cross section,[3],409.31 ± 3.1 Å²
same,collision cross section,[4],465.77 ± 2.3 Å²
GEPGIPAIPGIR [_GEPGIP(Hydroxyproline)AIPGIR_],collision cross section,[6],346.11 ± 0.79 Å²
FVDSKVGEFSGANK [_FVDSK(Trimethyl (K))VGEFSGANK_],collision cross section,[8],432.92 Å²
TVSKVDDFLANEAK [_TVSK(Succinyl)VDDFLANEAK_],collision cross section,[1],425.01 ± 0.52 Å²
DVNAAIAAIKTK [_DVNAAIAAIK(Malonyl)TK_],collision cross section,[9],406.2 ± 0.59 Å²
LLEQKTQESQK [_LLEQK(hydroxyisobutyryl)TQESQK_],collision cross section,[10],401.39 ± 0.81 Å²
FGSRGGPGGGFR [_FGSR(Methyl (R))GGPGGGFR_],collision cross section,[11],435.83 ± 3.2 Å²
ITGKNQVTATK [_ITGK(Succinyl)NQVTATK_],collision cross section,[1],364.93 ± 0.74 Å²
same,collision cross section,[2],446.25 Å²
GGPGGELPRGPQAGLGPR [_GGPGGELPR(Methyl (R))GPQAGLGPR_],collision cross section,[11],497.33 ± 2 Å²
GEGGFGGRGGGR [_GEGGFGGR(Citrullination (R))GGGR_],collision cross section,[12],329.76 ± 0.38 Å²
GATVTRGVPPPPTVR [_GATVTR(Citrullination (R))GVPPPPTVR_],collision cross section,[12],398.42 ± 2.1 Å²
same,collision cross section,[13],501.66 Å²
YVGESEANIR [_Y(Nitro (Y))VGESEANIR_],collision cross section,[7],357.77 ± 0.55 Å²
LLEEEDSKLK [_LLEEEDSK(Trimethyl (K))LK_],collision cross section,[8],388.34 ± 1.1 Å²
same,collision cross section,[14],441.46 ± 2.4 Å²
GETASKLQSEISR [_GETASK(Succinyl)LQSEISR_],collision cross section,[1],399.77 ± 2 Å²
DASTLQSQKAEGTGDAK [_DASTLQSQK(Butyryl)AEGTGDAK_],collision cross section,[15],440.14 ± 0.24 Å²
same,collision cross section,[16],511.91 ± 3.5 Å²
LQLGTPPPLLAARLVPPR [_LQLGTPPPLLAAR(Citrullination (R))LVPPR_],collision cross section,[13],576.16 ± 0.34 Å²
DAIHFYNKSLAEHR [_DAIHFYNK(Butyryl)SLAEHR_],collision cross section,[15],452.1 Å²
same,collision cross section,[16],511.38 ± 1.6 Å²
SQLANTEPTK [_SQLANT(HexNAc (ST))EPTK_],collision cross section,[17],372.78 ± 0.59 Å²
LSEHATAPTR [_LSEHATAPT(HexNAc (ST))R_],collision cross section,[17],370.75 ± 0.68 Å²
same,collision cross section,"charge state: 3, modification: HexNAc (ST)",450.64 ± 0.17 Å²
DTGEKLTVAENEAETK [_DTGEK(Formyl)LTVAENEAETK_],collision cross section,[18],439.79 ± 0.78 Å²
DAEAAEATAEGALKAEK [_DAEAAEATAEGALK(Trimethyl (K))AEK_],collision cross section,[8],469.97 ± 1 Å²
same,collision cross section,[14],535.87 ± 1.1 Å²
GEVGAGAGPGAQAGPSAKR [_GEVGAGAGPGAQAGPSAK(Butyryl)R_],collision cross section,[15],426.32 ± 1.1 Å²
same,collision cross section,[16],483.04 ± 4.4 Å²
GEVQVSDKER [_GEVQVSDK(Trimethyl (K))ER_],collision cross section,[8],366.73 ± 1.1 Å²
RGFGFGGFAISAGK [_R(Citrullination (R))GFGFGGFAISAGK_],collision cross section,[12],391.71 ± 0.23 Å²
VTLEVGKVIQQGR [_VTLEVGK(Gluratylation)VIQQGR_],collision cross section,[5],418.56 ± 0.59 Å²
same,collision cross section,"charge state: 3, modification: Glutarylation",485.84 ± 1 Å²
LGNDFHTNKR [_LGNDFHTNK(Methyl (K))R_],collision cross section,[19],368.02 ± 0.46 Å²
same,collision cross section,[20],430.67 ± 6.2 Å²
GERGPPGPPGR [_GERGPP(Hydroxyproline)GPPGR_],collision cross section,[6],333.05 Å²
IVSGKDYNVTANSK [_IVSGK(hydroxyisobutyryl)DYNVTANSK_],collision cross section,[10],417.55 ± 0.55 Å²
same,collision cross section,[21],466.6 ± 0.46 Å²
SKLLFSNTAAQK [_SK(Acetyl (K))LLFSNTAAQK_],collision cross section,[3],396.66 ± 1.3 Å²
SHLRHAIPSAER [_SHLR(Methyl (R))HAIPSAER_],collision cross section,"charge state: 2, modification: Methyl (R)",404.4 Å²
same,collision cross section,[11],477.29 ± 19 Å²
VGTASVLQPVKK [_VGTASVLQPVK(Propionyl)K_],collision cross section,[22],382.42 ± 0.33 Å²
ITESVAETAQTIKK [_ITESVAETAQTIK(Methyl (K))K_],collision cross section,[19],444.7 ± 2.5 Å²
same,collision cross section,[20],507.98 ± 2.8 Å²
PSVSTKLISK [_PSVSTK(Gluratylation)LISK_],collision cross section,[5],361.01 ± 0.71 Å²
LQEKVESAQSEQK [_LQEK(Methyl (K))VESAQSEQK_],collision cross section,[19],410.87 ± 2 Å²
same,collision cross section,[20],480.74 ± 20 Å²
LEQVEKELLR [_LEQVEK(Propionyl)ELLR_],collision cross section,[22],387.92 ± 0.44 Å²
GEVQVSDKER [_GEVQVSDK(Malonyl)ER_],collision cross section,[9],362.93 ± 1.2 Å²
VGIDTPDIDIHGPEGKLK [_VGIDTPDIDIHGPEGK(Trimethyl (K))LK_],collision cross section,[14],543.29 ± 0.9 Å²
DLSTVEALQNLKNLK [_DLSTVEALQNLK(Crotonyl)NLK_],collision cross section,"charge state: 2, modification: Crotonyl",484.33 ± 1.1 Å²
VDIDAPDVSIEGPDAKLK [_VDIDAPDVSIEGPDAK(Butyryl)LK_],collision cross section,[15],472.57 ± 0.49 Å²
PSVSTKLISK [_PSVSTK(Formyl)LISK_],collision cross section,[18],346.92 ± 1.1 Å²
DKALPLEAEVAPVK [_DK(Succinyl)ALPLEAEVAPVK_],collision cross section,[1],421.55 ± 0.36 Å²
VSPASSVDSNIPSSQGYKK [_VSPASSVDSNIPSSQGYK(hydroxyisobutyryl)K_],collision cross section,[10],468.85 ± 0.27 Å²
same,collision cross section,[21],562.43 ± 0.42 Å²
VQGGALEDSQLVAGVAFKK [_VQGGALEDSQLVAGVAFK(Acetyl (K))K_],collision cross section,[3],468.5 Å²
same,collision cross section,[4],554.41 Å²
ASDTSSETVFGKR [_ASDTSSETVFGK(Biotin)R_],collision cross section,"charge state: 2, modification: Biotin",406.15 Å²
LQLEIDQKK [_LQLEIDQK(Malonyl)K_],collision cross section,[9],367.76 ± 0.011 Å²
VGEFSGANKEK [_VGEFSGANK(Butyryl)EK_],collision cross section,[15],369.78 ± 1.3 Å²
ANEKTESSSAQQVAVSR [_ANEK(Trimethyl (K))TESSSAQQVAVSR_],collision cross section,[14],495.46 ± 1.6 Å²
ITGKNQVTATK [_ITGK(GlyGly (K))NQVTATK_],collision cross section,[23],373.22 ± 0.38 Å²
same,collision cross section,[24],442.8 ± 1.1 Å²
SLYASSPGGVYATR [_SLYAS(HexNAc (ST))SPGGVYATR_],collision cross section,[17],421.13 ± 0.62 Å²
SGGGYGGDRGGGYGGDR [_SGGGYGGDR(Citrullination (R))GGGYGGDR_],collision cross section,[12],393.58 ± 0.28 Å²
same,collision cross section,[13],470.6 ± 4.1 Å²
SPSDSGYSYETIGKTTK [_SPSDSGYSYETIGK(Malonyl)TTK_],collision cross section,[9],450.66 ± 0.58 Å²
same,collision cross section,"charge state: 3, modification: Malonyl",526.41 Å²
LEKTIDDLEEK [_LEK(Formyl)TIDDLEEK_],collision cross section,[18],399.8 ± 0.55 Å²
YVGESEANIR [_Y(Phospho (Y))VGESEANIR_],collision cross section,"charge state: 2, modification: Phospho (Y)",370.09 ± 0.95 Å²
PASGAGAGAGAGKR [_PASGAGAGAGAGK(Formyl)R_],collision cross section,[18],349.96 ± 1.4 Å²
same,collision cross section,"charge state: 3, modification: Formyl",453.33 ± 1.2 Å²
IINEPTAAAIAYGLDKK [_IINEPTAAAIAYGLDK(Malonyl)K_],collision cross section,[9],458.91 ± 0.99 Å²
KFGVLSDNFK [_K(Succinyl)FGVLSDNFK_],collision cross section,[1],376.58 ± 0.24 Å²
FDDTNPEKEEAK [_FDDTNPEK(Butyryl)EEAK_],collision cross section,[15],399.47 ± 0.85 Å²
same,collision cross section,[16],440.77 ± 2 Å²
SPSDSGYSYETIGKTTK [_SPSDSGYSYETIGK(GlyGly (K))TTK_],collision cross section,[23],483.23 ± 1.5 Å²
same,collision cross section,[24],532.2 ± 3.5 Å²
